# US20120171210A1, “METHODS AND COMPOSITIONS FOR INHIBITING C-MET DIMERIZATION AND ACTIVATION” (Genentech, Inc., priority 2003, published 2012)
# B1: rSema: recombinant Sema (rSema) protein, which included the Sema and PSI domains of the Met receptor (residues 25-567, 8×His tag) (protein)
# chain: ECKEALAKSEMNVNMKYQLPNFTAETPIQNVILHEHHIFLGATNYIYVLNEEDLQKVAEYKTGPVLEHPDCFPCQDCSSKANLSGGVWKDNINMALVVDTYYDDQLISCGSVNRGTCQRHVFPHNHTADIQSEVHCIFSPQIEEPSQCPDCVVSALGAKVLSSVKDRFINFFVGNTINSSYFPDHPLHSISVRRLKETKDGFMFLTDQSYIDVLPEFRDSYPIKYVHAFESNNFIYFLTVQRETLDAQTFHTRIIRFCSINSGLHSYMEMPLECILTEKRKKRSTKKEVFNILQAAYVSKPGAQLARQIGASLNDDILFGVFAQSKPDSAEPMDRSAMCAFPIKYVNDFFNKIVNKNNVRCLQHFYGPNHEHCFNRTLLRNSSGCEARRDEYRTEFTTALQRVDLFMGQFSEVLLTSISTFIKGDLTIANLGTSEGRFMQVVVSRSGPSTPHVNFLLDSHPVSPEVIVEHTLNQNGYTLVITGKKITKIPLNGLGCRHFQSCSQCLSAPPFVQCGWCHDKCVRSEECLSGTWTQQICLPAIYKHHHHHHHH
# What was measured:
# Akt [1] = assay: Akt phosphorylation in H441 cells; type: cell-based, Human; conditions: H441, increasing concentrations of rSema in the presence of HGF; data not shown
# Text: (§1) A transwell assay with MDA-MB-435 cells was used to measure Met driven cell migration (Coltella et al., 2003). […] The data correlated with the scrape assay results in the H441 cell line. Activation of Akt was also examined in H441 and MDA-MB-435 cells used in the cell motility and migration assays. […] The data correlated with observations that rSema can inhibit cell motility in the presence of ligand. Taken together, these observations supports the conclusion that a Sema domain antagonist, such as a recombinant polypeptide comprising a Sema sequence, is capable of not only inhibiting Met activation, but also blocking downstream effects of cell motility and migration in both ligand dependent and independent contexts.
# H441 cells = assay: Scrape assay (Met mediated cell motility); type: cell-based, Human
# Method: H441 cells were seeded at a density of 4.5×10^4 cells/well in a 96-well plate with 10% FBS in 50:50 DMEM/F12. The next day, a single scrape was made in the confluent monolayer in each well as described previously (Lorenzato et al., 2002). The cells were then incubated with media containing 0.5% BSA and treated with mock, 10 μg/ml 5D5, 10 μg/ml Sema, or 100 ng/ml HGF. The scrape was monitored and photographed daily. Representative results are shown for Day 2.
# H441 cells were used in a scrape assay as a measure of Met mediated cell motility (Lorenzato et al., 2002). H441 cells grown to high density were scraped in each well on day 0 and maintained in serum-free media containing 0.5% BSA for the duration of the experiment (FIG. 6). Cells were either treated with 10 μg/ml rSema or 5D5 or 100 ng/ml HGF as a positive control or mock treated. […] These observations were consistent in four separate experiments.
# To examine the effect of rSema on cell motility in the presence of ligand, cells were treated with 0, 0.1, 0.5, or 5 μg/ml rSema plus 20 ng/ml HGF. Cells treated with HGF alone closed the gap completely by Day 1.
# Akt [2] = assay: Akt phosphorylation in MDA-MB-435 cells; type: cell-based, Human; conditions: MDA-MB-435, increasing concentrations of rSema in the presence of HGF; data not shown
# Text: as §1
# Met = Met (Homo sapiens, UniProt P08581); assay: Met tyrosine phosphorylation in A549 cells (immunoprecipitation / phosphotyrosine immunoblot); type: cell-based; set-up: endogenous in cells; host or cells: A549 (lung carcinoma)
# Method: (§2) Cell lines were obtained from American Type Culture Collection (ATCC). 293 cells were maintained in DMEM supplemented with 10% FBS (Sigma), penicillin/streptomycin (GIBCO), and glutamine A549, H441, and MDA-MB-435 cells were maintained in 50:50 DMEM/F12 (Cellgro) supplemented with 10% FBS, penicillin/streptomycin, and glutamine Cells were transfected with 1-12 μg of the indicated constructs using Lipofectamine 2000 (Invitrogen) according to manufacturer's instructions. Twenty-four hrs later cells were harvested with 1% NP40 lysis buffer containing Complete protease inhibitor cocktail tablet and phosphatase inhibitor cocktail 2 (Roche and Sigma, respectively). For Met tyrosine phosphorylation and MAPK phosphorylation studies, cells were serum-starved for 2 hr with 0.5% BSA. Cells treated with 10 μg/ml anti-Met 5D5-Fab or rSema were incubated for an additional 1 hr prior to lysis. Cell debris was centrifuged and the supernatant was precleared with Protein A Sepharose (Sigma) or Protein G-Plus agarose beads (Santa Cruz) for 1 hr. 500 μg of lysates was then immunoprecipitated with 10 μg 5D5 antibody (Genentech) or 35 ul of Met (C-28) agarose conjugate (Santa Cruz) overnight at 4° C. with rotation. For HGF binding studies, 500 μg of lysates were incubated with 5 μg scHGF or HGF followed by immunoprecipitation with 1 μg of V5 antibody. Protein A or G beads were added for an additional 2 hrs before immunoprecipitates were washed 3 times with 1% NP40 lysis buffer. After addition of 2× sample buffer with 10 mM DTT, the samples were run on 4-12% Tris-glycine gels (Invitrogen). […] Proteins were detected by enhanced chemiluminescence (ECL-Plus, Amersham).
# (§3) Human tumor cells were treated with increasing concentrations of rSema and analyzed for Met tyrosine phosphorylation and downstream activation of mitogen activated protein kinase (MAPK) upon HGF stimulation. […]
# MAPK [3] = assay: MAPK phosphorylation in MDA-MB-435 cells (immunoblot); type: cell-based, Human
# Method: as §2, with “hr.” for “hr. 500 μg of lysates was then immunoprecipitated with 10 μg 5D5 antibody (Genentech) or 35 ul of Met (C-28) agarose conjugate (Santa Cruz) overnight at 4° C. with rotation. For HGF binding studies, 500 μg of lysates were incubated with 5 μg scHGF or HGF followed by immunoprecipitation with 1 μg of V5 antibody. Protein A or G beads were added for an additional 2 hrs before immunoprecipitates were washed 3 times with 1% NP40 lysis buffer. After addition of 2× sample buffer with 10 mM DTT, the samples were run on 4-12% Tris-glycine gels (Invitrogen).”
# as §3
# MAPK [4] = assay: MAPK phosphorylation in H441 cells (immunoblot); type: cell-based, Human
# Method: as §2, with “hr.” for “hr. 500 μg of lysates was then immunoprecipitated with 10 μg 5D5 antibody (Genentech) or 35 ul of Met (C-28) agarose conjugate (Santa Cruz) overnight at 4° C. with rotation. For HGF binding studies, 500 μg of lysates were incubated with 5 μg scHGF or HGF followed by immunoprecipitation with 1 μg of V5 antibody. Protein A or G beads were added for an additional 2 hrs before immunoprecipitates were washed 3 times with 1% NP40 lysis buffer. After addition of 2× sample buffer with 10 mM DTT, the samples were run on 4-12% Tris-glycine gels (Invitrogen).”
# as §3
# MDA-MB-435 cells = assay: Transwell migration assay; type: cell-based, Human; conditions: MDA-MB-435, 10 μg/ml in upper chamber, absence of HGF, vs mock
# Method: Transwell migration assays were carried out as previously described with modifications (Coltella et al., 2003). MDA-MB-435 cells were seeded at 1.2×10^5 cells in media containing 0.5% BSA to the upper chamber of each transwell (Costar) that had been previously coated with 10 ug/ml collagen type IV (Sigma). Mock, 10 μg/ml anti-Met 5D5-Fab, or 10 μg/ml Sema was added to the upper chamber. As a positive control, 100 ng/ml HGF was also added to the lower chamber of mock-treated wells. The next day, the cells were fixed with 4% paraformaldehyde and stained with 0.5% crystal violet. Cells that had migrated to the lower chamber were solubilized with 10% acetic acid and the absorbance was measured at 560 nm in a microplate reader.
# A transwell assay with MDA-MB-435 cells was used to measure Met driven cell migration (Coltella et al., 2003). […] The data correlated with the scrape assay results in the H441 cell line. Activation of Akt was also examined in H441 and MDA-MB-435 cells used in the cell motility and migration assays. […] The data correlated with observations that rSema can inhibit cell motility in the presence of ligand. […]
# MAPK [5] = assay: MAPK phosphorylation in A549 cells (immunoblot); type: cell-based, Human
# Method: as §2, §3
# [6] = A549, serum-free, 10 μg/ml, absence of HGF, vs mock
# Chain of Met (P08581 308-1390, one chain of several): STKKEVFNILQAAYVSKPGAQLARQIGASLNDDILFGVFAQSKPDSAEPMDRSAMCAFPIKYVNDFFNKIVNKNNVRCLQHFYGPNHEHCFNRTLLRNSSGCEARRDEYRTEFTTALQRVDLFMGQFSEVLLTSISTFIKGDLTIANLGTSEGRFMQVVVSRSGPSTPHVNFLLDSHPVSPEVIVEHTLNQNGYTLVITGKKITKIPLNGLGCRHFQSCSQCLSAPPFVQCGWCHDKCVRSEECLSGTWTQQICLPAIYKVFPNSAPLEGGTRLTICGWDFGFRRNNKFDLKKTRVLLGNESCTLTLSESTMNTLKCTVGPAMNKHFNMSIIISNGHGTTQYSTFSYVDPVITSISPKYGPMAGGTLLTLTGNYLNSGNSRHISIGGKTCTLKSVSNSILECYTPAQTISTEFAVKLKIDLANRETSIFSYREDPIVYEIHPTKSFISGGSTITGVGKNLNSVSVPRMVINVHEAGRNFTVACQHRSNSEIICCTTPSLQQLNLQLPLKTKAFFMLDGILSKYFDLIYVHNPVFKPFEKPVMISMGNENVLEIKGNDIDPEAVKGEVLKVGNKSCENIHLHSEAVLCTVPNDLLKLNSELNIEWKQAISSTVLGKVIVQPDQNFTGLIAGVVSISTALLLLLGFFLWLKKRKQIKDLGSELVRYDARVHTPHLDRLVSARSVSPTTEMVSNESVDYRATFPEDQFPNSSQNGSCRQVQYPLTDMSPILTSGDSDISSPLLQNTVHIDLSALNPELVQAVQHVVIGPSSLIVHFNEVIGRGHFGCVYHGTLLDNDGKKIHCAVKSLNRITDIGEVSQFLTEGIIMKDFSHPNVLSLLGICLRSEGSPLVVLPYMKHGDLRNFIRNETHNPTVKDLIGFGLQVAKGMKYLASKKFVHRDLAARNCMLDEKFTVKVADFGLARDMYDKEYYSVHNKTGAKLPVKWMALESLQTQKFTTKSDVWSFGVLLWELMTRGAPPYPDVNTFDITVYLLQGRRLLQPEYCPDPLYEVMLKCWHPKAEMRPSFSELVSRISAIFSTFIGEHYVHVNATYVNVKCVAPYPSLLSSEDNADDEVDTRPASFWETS
molecule,measurement,setting,value
B1,Akt phosphorylation,Akt [1],dose dependent decrease in Akt phosphorylation
same,gap closure in scrape assay in the presence of ligand,"H441 cells; 0, 0.1, 0.5 or 5 μg/ml rSema plus 20 ng/ml HGF, data not shown",retained the gap in a dose dependent manner
same,gap closure in scrape assay,"H441 cells; H441, 10 μg/ml, serum-free, absence of HGF, Day 2, mock gap closed completely",a gap remained
same,Akt phosphorylation,Akt [2],dose dependent decrease in Akt phosphorylation
same,Met phosphorylation,"Met; A549, serum starved, 0-100 μg/ml rSema with 10 ng/ml HGF, 10 min",decrease in Met phosphorylation
same,ligand independent Met phosphorylation,Met; [6],inhibition
same,phospho-MAPK,"MAPK [3]; MDA-MB-435, 0-100 μg/ml rSema plus 10 ng/ml HGF, 5 min",dose dependent decrease in phospho-MAPK
same,MAPK phosphorylation,"MAPK [3]; MDA-MB-435, 10 μg/ml, absence of HGF",decrease in MAPK phosphorylation
same,phospho-MAPK,"MAPK [4]; H441, 0-100 μg/ml rSema plus 5 ng/ml HGF, 5 min",dose dependent decrease in phospho-MAPK
same,MAPK phosphorylation,"MAPK [4]; H441, 10 μg/ml, absence of HGF",decrease in MAPK phosphorylation
same,cell migration (absorbance at 560 nm of migrated cells),MDA-MB-435 cells,consistently decreased
same,phosphorylation of MAPK,"MAPK [5]; A549, increasing concentrations of rSema in the presence of HGF (10 ng/ml)",phosphorylation of MAPK decreased
same,phospho-MAPK levels,MAPK [5]; [6],inhibition
